Literature values, collected in article PMC8044989.

Molecular target: RXFP3 (Homo sapiens) (UniProt Q9NSD7)
Sequence of UniProt Q9NSD7 (Q9NSD7 whole entry): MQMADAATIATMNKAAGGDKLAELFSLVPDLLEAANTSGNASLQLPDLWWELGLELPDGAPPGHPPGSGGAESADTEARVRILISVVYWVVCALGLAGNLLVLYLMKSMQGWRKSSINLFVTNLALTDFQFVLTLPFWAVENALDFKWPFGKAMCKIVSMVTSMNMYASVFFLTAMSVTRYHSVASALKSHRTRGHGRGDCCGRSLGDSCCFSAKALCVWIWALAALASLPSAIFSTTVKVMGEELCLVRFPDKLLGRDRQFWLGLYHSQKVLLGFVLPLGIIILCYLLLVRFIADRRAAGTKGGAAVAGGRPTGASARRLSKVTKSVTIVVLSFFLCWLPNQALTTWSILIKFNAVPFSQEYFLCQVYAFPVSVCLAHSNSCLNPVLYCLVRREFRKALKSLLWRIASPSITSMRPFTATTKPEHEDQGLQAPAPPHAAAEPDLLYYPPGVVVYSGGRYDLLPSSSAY

- Kd: 300 pM
Substance: relaxin-3 (from UniProt Q8WXF3)
